Drawing on patent publication US20080220446A1, “Method for Detecting and/or Removing Protein and/or Peptide Comprising a Cross-Beta Structure From an Aqueous Solution Comprising a Protein” (priority 2005, published 2008), this text covers concentration of ligand that results in half maximum binding for 1 substance.

In the assay the target is endostatin (EntreMed, Inc.) (UniProt P39060). Nature of the assay: SPR (Biacore), Fn F4-5-His6 immobilized, endostatin at 0-800 nM, maximum RU against concentration. In general terms: Surface plasmon resonance follows binding to a sensor surface in real time, without labels.
Chain of endostatin (EntreMed, Inc.) (P39060 1572-1754): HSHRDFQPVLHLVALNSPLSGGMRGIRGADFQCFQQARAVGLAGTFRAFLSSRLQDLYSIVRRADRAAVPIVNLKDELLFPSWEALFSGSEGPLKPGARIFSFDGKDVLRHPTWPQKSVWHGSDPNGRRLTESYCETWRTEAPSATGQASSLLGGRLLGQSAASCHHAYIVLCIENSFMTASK

The substance “Fn F4-5-His6 (fibronectin type I domains 4-5, expressed in S. cerevisiae) (from UniProt P02751 182-276)” registered a concentration of ligand that results in half maximum binding of 800 nM.
